# Source: patent US5683983
# Target: extracellular domain (ECD) of the IL-5 receptor α chain (IL-5R α) (human) (UniProt Q01344)
# Experiment: grade under 'Affinity'; IC50 values of 500 nm or less; competition with [125I] IL-5 for IL-5Rα ECD (Example 3), assay not given
row,IC50 [nM],Binder
1,< 500,DGYVCVEWARCPTCK [D G Y V C V E W A R C P T C K (SEQ ID NO:7)]
2,< 500,DGFVCVEWARCPNCR [D G F V C V E W A R C P N C R (SEQ ID NO:9)]
3,< 500,DGYVCVEWARCPMCT [D G Y V C V E W A R C P M C T (SEQ ID NO:8)]
